Target: T1, Nogo-66 receptor (NgR)/Fc chimera (rat, UniProt Q99M75 27-447)
T1 sequence: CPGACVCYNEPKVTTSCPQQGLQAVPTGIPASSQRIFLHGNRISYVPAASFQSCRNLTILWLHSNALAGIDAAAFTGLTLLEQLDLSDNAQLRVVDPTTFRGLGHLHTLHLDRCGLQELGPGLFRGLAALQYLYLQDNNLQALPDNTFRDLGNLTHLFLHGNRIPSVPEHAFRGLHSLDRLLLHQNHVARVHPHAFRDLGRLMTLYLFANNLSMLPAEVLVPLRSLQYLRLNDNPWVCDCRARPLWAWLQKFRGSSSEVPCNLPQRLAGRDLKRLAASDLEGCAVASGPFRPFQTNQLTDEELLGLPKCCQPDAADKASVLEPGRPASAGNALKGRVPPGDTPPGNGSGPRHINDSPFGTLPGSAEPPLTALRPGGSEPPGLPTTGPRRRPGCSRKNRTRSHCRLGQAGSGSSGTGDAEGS
Assay: filter binding; three-point estimate, data not shown; Selection buffer PBS pH 7.4, 3 mM MgCl2; RNA 0.5 nM, NgR/Fc 12.5-500 nM for Kd; competition 20 min at 37 C
Details: protein: commercial; tags: human IgG Fc fusion; chain copies: 2; label: 32P

B1: Clone 6 (ssRNA)
RNA: GGGUUUACCUAGGUGUAGAUGCUCUCUCUAUUUCAUUCGUAGGCUAUUGGUGCCGCAAAUACUAGCUUUACGAAAGUGACGUCUGAACUGCUUCGAAAA
binding result: binds
